Test results reported in publication PMC3526283, “DNA-binding determinants promoting NHEJ by human Polµ”.

Columns and labels:
[1] = target: T1, DNA polymerase beta (Polβ) (Homo sapiens, UniProt P06746 1-335); assay: EMSA; 100 nM protein; EMSA: 50 mM Tris-HCl pH 7.5, 0.1 mg/ml BSA, 1 mM DTT, 4% glycerol, 5 nM DNA, 10 min at 30°C; footprinting: same buffer, 30 nM DNA, 37°C (2.5 mM MgCl2 and 100 µM)
DNA polymerase mu (Polµ) [2] = target: T2, DNA polymerase mu (Polµ) (Homo sapiens, UniProt Q9NP87 1-494); assay: EMSA; EMSA: 50 mM Tris-HCl pH 7.5, 0.1 mg/ml BSA, 1 mM DTT, 4% glycerol, 5 nM DNA, 10 min at 30°C; footprinting: same buffer, 30 nM DNA, 37°C (2.5 mM MgCl2 and 100 µM dNTP where stated); conditions: protein: recombinant, tags: pRSETA-hPolµ construct
T2 sequence (Q9NP87 whole entry): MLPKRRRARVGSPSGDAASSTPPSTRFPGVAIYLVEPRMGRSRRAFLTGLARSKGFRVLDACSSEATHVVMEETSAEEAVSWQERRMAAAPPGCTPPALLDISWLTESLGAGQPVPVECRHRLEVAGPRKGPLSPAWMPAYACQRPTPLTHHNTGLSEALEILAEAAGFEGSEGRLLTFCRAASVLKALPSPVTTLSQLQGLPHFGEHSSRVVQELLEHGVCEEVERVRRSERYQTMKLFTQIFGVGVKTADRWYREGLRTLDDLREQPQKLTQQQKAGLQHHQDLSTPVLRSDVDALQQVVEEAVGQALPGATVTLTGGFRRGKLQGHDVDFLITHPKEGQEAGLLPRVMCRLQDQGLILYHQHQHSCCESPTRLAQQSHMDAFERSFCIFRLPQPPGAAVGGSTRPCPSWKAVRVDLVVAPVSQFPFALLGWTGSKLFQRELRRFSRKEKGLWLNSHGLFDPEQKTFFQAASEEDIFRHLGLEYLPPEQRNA

[3] = target: T1, DNA polymerase beta (Polβ); assay: DNase I footprinting; 100 µM dTTP, 2.5 mM MgCl2; protects positions 36-45; EMSA: 50 mM Tris-HCl pH 7.5, 0.1 mg/ml BSA, 1 mM DTT, 4% glycerol, 5 nM DNA, 10 min at 30°C; footprinting: same buffer, 30 nM DNA, 37°C (2.5 mM MgCl2 and 100 µM)
Polµ-ΔBRCT [4] = target: T3, Polµ-ΔBRCT (Homo sapiens, UniProt Q9NP87 138-494); assay: DNase I footprinting; protects 10 nt, no downstream extension; EMSA: 50 mM Tris-HCl pH 7.5, 0.1 mg/ml BSA, 1 mM DTT, 4% glycerol, 5 nM DNA, 10 min at 30°C; footprinting: same buffer, 30 nM DNA, 37°C (2.5 mM MgCl2 and 100 µM dNTP where stated); conditions: protein: recombinant; tags: pRSETA construct; label: 32P at 5' end of FP-T; 1-nt gap, three strands; template FP-T, primer FP-P, downstream FP-D; otherwise blunt
T3 sequence (Q9NP87 138-494, stated change not applied): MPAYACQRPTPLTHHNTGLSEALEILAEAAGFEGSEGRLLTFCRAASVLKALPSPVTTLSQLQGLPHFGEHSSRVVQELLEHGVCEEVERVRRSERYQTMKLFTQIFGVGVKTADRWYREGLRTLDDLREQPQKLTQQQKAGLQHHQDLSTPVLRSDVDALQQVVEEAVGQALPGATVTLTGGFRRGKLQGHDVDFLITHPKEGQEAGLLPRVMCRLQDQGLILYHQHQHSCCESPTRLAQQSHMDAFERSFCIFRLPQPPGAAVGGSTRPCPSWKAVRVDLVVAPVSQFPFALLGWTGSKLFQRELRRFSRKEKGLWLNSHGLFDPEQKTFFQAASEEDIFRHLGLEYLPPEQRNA

DNA polymerase mu (Polµ) [5] = target: T2, DNA polymerase mu (Polµ); assay: DNase I footprinting; 100 µM dTTP, 2.5 mM MgCl2; protects positions 36-52; EMSA: 50 mM Tris-HCl pH 7.5, 0.1 mg/ml BSA, 1 mM DTT, 4% glycerol, 5 nM DNA, 10 min at 30°C; footprinting: same buffer, 30 nM DNA, 37°C (2.5 mM MgCl2 and 100 µM dNTP where stated); conditions: protein: recombinant; tags: pRSETA-hPolµ construct; label: 32P at 5' end of FP-T; 1-nt gap, three strands; template FP-T, primer FP-P, downstream FP-D; otherwise blunt
Polµ H329G = Polµ H329G (Homo sapiens, UniProt Q9NP87 1-494, H329G); assay: DNase I footprinting; with/without dATP or dTTP; no expansion with nucleotide, no downstream BRCT extension; EMSA: 50 mM Tris-HCl pH 7.5, 0.1 mg/ml BSA, 1 mM DTT, 4% glycerol, 5 nM DNA, 10 min at 30°C; footprinting: same buffer, 30 nM DNA, 37°C (2.5 mM MgCl2 and 100 µM dNTP where stated); conditions: protein: recombinant; label: 32P at 5' end of FP-T; 1-nt gap, three strands; template FP-T, primer FP-P, downstream FP-D; otherwise blunt
Sequence of Polµ H329G (Q9NP87 whole entry H329G): as the sequence (Q9NP87 whole entry) above, with H329G counted along it

Polµ R387A = Polµ R387A (Homo sapiens, UniProt Q9NP87 1-494, R387A); assay: DNase I footprinting; footprint expands to primer side with dTTP; downstream extension only partly recovered with dTTP; EMSA: 50 mM Tris-HCl pH 7.5, 0.1 mg/ml BSA, 1 mM DTT, 4% glycerol, 5 nM DNA, 10 min at 30°C; footprinting: same buffer, 30 nM DNA, 37°C (2.5 mM MgCl2 and 100 µM dNTP where stated); conditions: protein: recombinant, label: 32P at 5' end of FP-T, 1-nt gap, three strands, template FP-T, downstream FP-D, otherwise blunt
Sequence of Polµ R387A (Q9NP87 whole entry R387A): as the sequence (Q9NP87 whole entry) above, with R387A counted along it

Polµ-ΔBRCT [6] = target: T3, Polµ-ΔBRCT; assay: EMSA; 5'-P assignment inferred: binding undetectable without it; EMSA: 50 mM Tris-HCl pH 7.5, 0.1 mg/ml BSA, 1 mM DTT, 4% glycerol, 5 nM DNA, 10 min at 30°C; footprinting: same buffer, 30 nM DNA, 37°C (2.5 mM MgCl2 and 100 µM dNTP where stated); conditions: protein: recombinant; tags: pRSETA construct; label: 32P; 3' overhang 2 nt (text says 3 nt), other end blunt
Polµ-ΔBRCT [7] = target: T3, Polµ-ΔBRCT; assay: EMSA; 300 and 600 nM protein; EMSA: 50 mM Tris-HCl pH 7.5, 0.1 mg/ml BSA, 1 mM DTT, 4% glycerol, 5 nM DNA, 10 min at 30°C; footprinting: same buffer, 30 nM DNA, 37°C (2.5 mM MgCl2 and 100 µM dNTP where stated); conditions: protein: recombinant; tags: pRSETA construct; label: 32P; 3' overhang 2 nt (text says 3 nt), other end blunt
[8] = label: 32P at 5' end of Sp1C, 1-nt gap, three strands, otherwise blunt
[9] = label: 32P, 3' overhang 2 nt (text says 3 nt), other end blunt

B1: 1-nt gap Sp1C/T28/D12, 5'-P (dsDNA)
DNA 1: AGAAGTGTATCTCGTACTCACTGTGATC
DNA 2: GATCACAGTGAGTAC
DNA 3: AGATACACTTCT
modifications: 5'-phosphate on D12 (S3)
binding result [1]: binds
Kd (DNA polymerase mu (Polµ) [2]; [8]): 100 nM

B2: 1-nt gap Sp1C/T28/D12, 5'-OH (dsDNA)
DNA 1: AGAAGTGTATCTCGTACTCACTGTGATC
DNA 2: GATCACAGTGAGTAC
DNA 3: AGATACACTTCT
Kd (DNA polymerase mu (Polµ) [2]; [8]): 500 nM

B3: footprint 1-nt gap FP-T/FP-P/FP-D, 5'-P (dsDNA)
DNA 1: GGCAGCTTGGATCTTGTCGAAAAACGTCAACATTCGCCTAGGCTTCGGCAATACTGAGGTCTTGTCGAAAAACGTCAACATTGCGTGGCC
DNA 2: GGCCACGCAATGTTGACGTTTTTCGACAAGACCTCAGTAT
DNA 3: GCCGAAGCCTAGGCGAATGTTGACGTTTTTCGACAAGATCCAAGCTGCC
modifications: 5'-phosphate on FP-D (S10)
binding result [3]: binds
binding result (Polµ-ΔBRCT [4]): binds
binding result (DNA polymerase mu (Polµ) [5]): binds
binding result (Polµ H329G): binds
binding result (Polµ R387A): binds

B4: 3'-protruding end GT/NHEJ-D, 5'-P (dsDNA)
DNA 1: CCCTCCCTCCCGT
DNA 2: GGGAGGGAGGG
modifications: 5'-phosphate on NHEJ-D (S15)
Kd (DNA polymerase mu (Polµ) [2]; [9]): 165 nM
Kd (Polµ-ΔBRCT [6]): 2000 nM

B5: 3'-protruding end GT/NHEJ-D, 5'-OH (dsDNA)
DNA 1: CCCTCCCTCCCGT
DNA 2: GGGAGGGAGGG
Kd (DNA polymerase mu (Polµ) [2]; [9]): 400 nM
binding result (Polµ-ΔBRCT [7]): no binding
